Results taken from patent US11459375B2, “Cyclic peptides for the treatment of Graves' disease” (advanceCOR GmbH, priority 2017, dated 2022).

Columns and labels:
Ad-TSHR-immunized mice = assay: clinical signs of allergic reaction during therapy of immunized mice; format: in vivo, BALB/c mice; conditions: 1 mg/kg IV, had to be treated with clemastin
Description: The study protocol used three 3-weekly immunizations (“initiation”) and followed by a “maintenance” phase with further regular 4-weekly boosts until the 9th immunisation, as described before (22). Mice were randomly assigned to therapeutic groups. Therapy (either 1 mg/kg body weight peptides or 0.9% NaCl vehicle control) was given 1 week after the 4th immunization by IV injection into a tail vein, and then continued at 4-weekly intervals, as described before for the treatment of anti-β1AR (16). The fusion protein TSHR-Fc was given IV at identical times at doses of 1 mg/kg, but had to be applied together with the histamine receptor blocker clemastin (Tavegil®) at a dose of 0.02 mg per mouse (25 g body weight) to avoid clinical symptoms of allergic reaction, which had been observed in initial pilot studies of TSHR-Fc administration in mice.

[1] = test system: monoclonal M22 antibody binding to TSHR; assay: direct binding/scavenging of anti-TSHR antibody M22 (modified 3rd generation titer assay); design: species or system human; conditions: 100 μg/mL test substance, M22 final concentration 10 ng/mL
Description: In FIG. 8 the effects of peptides on anti-TSHR antibody titers (A) and on cAMP stimulation in TSHR-expressing test cells (B) were studied ex vivo (anti-TSHR-antibody positive serum samples). Each measurement was carried out in 4 samples. Results are shown as % of untreated controls with standard errors of the means (SEM). Significance was tested by analysis of variance (ANOVA) between groups, followed by LSD post-hoc testing. **p<0.001, compared to controls
In order to investigate the direct binding of peptides to anti-TSHR antibodies, Roche's Cobas® assay (04388790) for ECLIA was used with minor modifications: 30 μl of the diluted monoclonal M22-Bio antibody was mixed with 30 μl diluted peptide or TSHR-Fc (final concentration of 100 μg/ml in PBS) and added to the TSHR-pre-coated microtiter plate. After an incubation step for 2 h at room temperature the protocol was continued according to the manufacturer's instructions.

TSHR-Fc: fusion protein: first 289 amino acids of human TSH receptor (A-subunit), GGR linker and Fc portion of human IgG2
clinical signs of allergic reactions (Ad-TSHR-immunized mice): clinical signs of allergic reactions | anti-TSHR antibody titers (M22 binding to its substrate) [1]: significantly reduced anti-TSHR antibody titers
